Tests used:
HLA-B*51:01 = test: IEDB peptide-MHC binding, purified MHC/competitive/fluorescence; filed as Kd, often an IC50 or EC50 that approximates it; ≥ and ≤ were set here for values at or beyond the usual limits of such assays
HLA-B*57:01 = test: as above
HLA-B*46:01 = test: as above
HLA-A*26:01 [1] = test: as above
HLA-B*15:17 = test: as above; details: source organism: Araucaria virus
HLA-A*69:01 = test: as above; details: source organism: Araucaria virus
HLA-B*39:01 = test: as above; details: source organism: Araucaria virus
HLA-A*02:01 [2] = test: as above
HLA-B*27:03 = test: as above
HLA-B*18:01 = test: as above
HLA-A*02:16 = test: IEDB peptide-MHC binding, purified MHC/direct/fluorescence; filed as Kd, often an IC50 or EC50 that approximates it; ≥ and ≤ were set here for values at or beyond the usual limits of such assays; details: source organism: Araucaria virus
HLA-A*02:12 = test: as above; details: source organism: Araucaria virus
HLA-B*15:01 [3] = test: as above; details: source organism: Orthohantavirus andesense
HLA-A*68:02 [4] = test: as above; details: source organism: Araucaria virus
HLA-A*02:19 [5] = test: as above; details: source organism: Araucaria virus
HLA-A*24:03 = test: as above; details: source organism: Araucaria virus
HLA-A*02:11 [6] = test: as above; details: source organism: Araucaria virus
HLA-A*29:02 [7] = test: as above; details: source organism: Araucaria virus
HLA-A*23:01 = test: as above; details: source organism: Araucaria virus
HLA-A*03:01 [8] = test: as above; details: source organism: Araucaria virus
HLA-B*15:01 [9] = test: IEDB peptide-MHC binding, purified MHC/competitive/fluorescence; filed as Kd, often an IC50 or EC50 that approximates it; ≥ and ≤ were set here for values at or beyond the usual limits of such assays
HLA-A*02:19 [10] = test: as above
HLA-A*29:02 [11] = test: as above
HLA-A*03:01 [12] = test: as above
HLA-A*02:06 = test: IEDB peptide-MHC binding, purified MHC/competitive/radioactivity; filed as Kd, often an IC50 or EC50 that approximates it; ≥ and ≤ were set here for values at or beyond the usual limits of such assays
HLA-A*02:01 [13] = test: as above
HLA-A*02:03 = test: as above
HLA-A*02:17 = test: as above
HLA-A*68:02 [14] = test: as above; details: source organism: Dengue virus 3 Martinique/1243/1999
HLA-A*26:01 [15] = test: as above; details: source organism: Dengue virus 4 Philippines/H241/1956
HLA-A*01:01 [16] = test: IEDB peptide-MHC binding, purified MHC/competitive/fluorescence; filed as Kd, often an IC50 or EC50 that approximates it; ≥ and ≤ were set here for values at or beyond the usual limits of such assays
HLA-A*02:11 [17] = test: as above; details: source organism: Encephalitozoon cuniculi GB-M1
HLA-A*30:01 = test: IEDB peptide-MHC binding, purified MHC/competitive/radioactivity; filed as Kd, often an IC50 or EC50 that approximates it; ≥ and ≤ were set here for values at or beyond the usual limits of such assays; details: source organism: Dengue virus 1 Brazil/97-11/1997
HLA-A*31:01 = test: IEDB peptide-MHC binding, purified MHC/competitive/fluorescence; filed as Kd, often an IC50 or EC50 that approximates it; ≥ and ≤ were set here for values at or beyond the usual limits of such assays; details: source organism: Dengue virus 3 Philippines/H87/1956
HLA-B*83:01 = test: as above; details: source organism: Dengue virus 3 Philippines/H87/1956
HLA-B*45:06 = test: as above; details: source organism: Dengue virus 3 Philippines/H87/1956
HLA-B*15:42 = test: as above; details: source organism: Dengue virus 3 Philippines/H87/1956
HLA-A*68:01 = test: IEDB peptide-MHC binding, purified MHC/competitive/radioactivity; filed as Kd, often an IC50 or EC50 that approximates it; ≥ and ≤ were set here for values at or beyond the usual limits of such assays; details: source organism: Dengue virus 3 Martinique/1243/1999
HLA-A*11:01 = test: IEDB peptide-MHC binding, purified MHC/direct/fluorescence; filed as Kd, often an IC50 or EC50 that approximates it; ≥ and ≤ were set here for values at or beyond the usual limits of such assays; details: source organism: dengue virus type 2
HLA-A*01:01 [18] = test: IEDB peptide-MHC binding, purified MHC/competitive/radioactivity; filed as Kd, often an IC50 or EC50 that approximates it; ≥ and ≤ were set here for values at or beyond the usual limits of such assays; details: source organism: Dengue virus 4 Philippines/H241/1956
[19] = source organism: Araucaria virus
[20] = source organism: Campylobacter jejuni subsp. jejuni NCTC 11168 = ATCC 700819
[21] = source organism: Dengue virus 4 Philippines/H241/1956
[22] = source organism: Mycobacterium tuberculosis variant bovis BCG str. Pasteur 1173P2
[23] = source organism: Dengue virus 1 Singapore/S275/1990
[24] = source organism: Dengue virus 2 Peru/IQT2913/1996
[25] = source organism: Dengue virus 2 Thailand/NGS-C/1944

AQKLATKPV gave a Kd (HLA-B*51:01; [19]) of at least 20000 nM, a Kd (HLA-B*57:01; [19]) of at least 20000 nM and a Kd (HLA-B*46:01; [19]) of at least 20000 nM. For the same sequence, the Kd (HLA-A*26:01 [1]; [19]) was at least 20000 nM, the Kd (HLA-B*15:17) was at least 20000 nM and the Kd (HLA-A*69:01) was at least 20000 nM. The Kd (HLA-B*39:01) was at least 20000 nM, the Kd (HLA-A*02:01 [2]; [19]) was at least 20000 nM and the Kd (HLA-B*27:03; [19]) was at least 20000 nM. The Kd (HLA-B*18:01; [19]) was at least 20000 nM, the Kd (HLA-A*02:16) was at least 20000 nM and the Kd (HLA-A*02:12) was at least 20000 nM. The Kd (HLA-B*15:01 [3]) was 716 nM, the Kd (HLA-A*68:02 [4]) was at least 20000 nM and the Kd (HLA-A*02:19 [5]) was at least 20000 nM. The Kd (HLA-A*24:03) was at least 20000 nM, the Kd (HLA-A*02:11 [6]) was at least 20000 nM and the Kd (HLA-A*29:02 [7]) was at least 20000 nM. The Kd (HLA-A*23:01) was at least 20000 nM and the Kd (HLA-A*03:01 [8]) was at least 20000 nM.
AVGFFPTGV showed a Kd (HLA-B*51:01; [20]) of at least 20000 nM, a Kd (HLA-B*15:01 [9]; [20]) of at least 20000 nM and a Kd (HLA-B*57:01; [20]) of at least 20000 nM. The Kd (HLA-B*46:01; [20]) was at least 20000 nM, the Kd (HLA-A*26:01 [1]; [20]) was at least 20000 nM and the Kd (HLA-A*02:19 [10]; [20]) was 103 nM. It also gave a Kd (HLA-A*02:01 [2]; [20]) of 2.2 nM, a Kd (HLA-B*27:03; [20]) of at least 20000 nM and a Kd (HLA-A*29:02 [11]; [20]) of 351 nM. For the same sequence, the Kd (HLA-B*18:01; [20]) was at least 20000 nM and the Kd (HLA-A*03:01 [12]; [20]) was at least 20000 nM.
With FMKDGRSLV the Kd (HLA-A*02:06; [21]) was 318 nM, the Kd (HLA-A*02:01 [13]; [21]) was 219 nM and the Kd (HLA-A*02:03; [21]) was 16.1 nM. It also gave a Kd (HLA-A*02:17; [21]) of 1660 nM.
With GLFGKTQVGV the Kd (HLA-A*02:01 [13]; [21]) was 6.21 nM, the Kd (HLA-A*02:03; [21]) was 0.55 nM and the Kd (HLA-A*02:17; [21]) was 2760 nM.
GVFHTMWHV gave a Kd (HLA-A*02:06; source organism: Dengue virus 3 Martinique/1243/1999) of 4.41 nM, a Kd (HLA-A*68:02 [14]) of 7.01 nM and a Kd (HLA-A*02:01 [13]; [21]) of 7.59 nM. It also gave a Kd (HLA-A*02:17; [21]) of 109 nM.
HLTRVGPYL gave a Kd (HLA-B*51:01; [22]) of at least 20000 nM, a Kd (HLA-B*15:01 [9]; [22]) of at least 20000 nM and a Kd (HLA-B*57:01; [22]) of at least 20000 nM. For the same sequence, the Kd (HLA-B*46:01; [22]) was at least 20000 nM, the Kd (HLA-A*26:01 [1]; [22]) was at least 20000 nM and the Kd (HLA-A*02:19 [10]; [22]) was 1030 nM. It also gave a Kd (HLA-A*02:01 [2]; [22]) of 2.4 nM, a Kd (HLA-B*27:03; [22]) of at least 20000 nM and a Kd (HLA-A*29:02 [11]; [22]) of at least 20000 nM. It also gave a Kd (HLA-B*18:01; [22]) of at least 20000 nM and a Kd (HLA-A*03:01 [12]; [22]) of at least 20000 nM.
LLAGFMAYM was tested, and the Kd (HLA-A*26:01 [15]) was 1210 nM, the Kd (HLA-A*02:01 [13]; [21]) was 4.7 nM and the Kd (HLA-A*02:03; [21]) was 68.5 nM. For the same sequence, the Kd (HLA-A*02:17; [21]) was 1.97 nM.
LLENDMKFTV was tested, and the Kd (HLA-A*02:01 [13]; [23]) was 5.76 nM and the Kd (HLA-A*02:17; [23]) was 115 nM.
With LLVKLALITV the Kd (HLA-A*02:06; [21]) was 769 nM, the Kd (HLA-A*02:01 [13]; [21]) was 17.6 nM and the Kd (HLA-A*02:03; [21]) was 0.18 nM. The Kd (HLA-A*02:17; [21]) was 6700 nM.
Work on MLLVLCVTQV yielded a Kd (HLA-A*02:06; [24]) of 84 nM, a Kd (HLA-A*02:01 [13]; [25]) of 26.5 nM and a Kd (HLA-A*02:03; [24]) of 175 nM. The Kd (HLA-A*02:17; [25]) was 843 nM.
Sequence MVKMGGLGY has a Kd (HLA-A*29:02 [11]; source organism: Rotavirus G3) of 28.6 nM and a Kd (HLA-A*01:01 [16]; source organism: Rotavirus G3) of at least 20000 nM.
Work on RKSAPSTGGV yielded a Kd (HLA-A*02:01 [13]; source organism: Homo sapiens) of at least 38700 nM and a Kd (HLA-A*02:17; source organism: Homo sapiens) of at least 20600 nM.
Sequence SMIFSVLDA has a Kd (HLA-A*02:01 [2]; source organism: Encephalitozoon cuniculi GB-M1) of 1.4 nM and a Kd (HLA-A*02:11 [17]) of 129 nM.
For TMLLMLLPTA, the Kd (HLA-A*30:01) was 12400 nM, the Kd (HLA-A*02:06; source organism: Dengue virus 1 Brazil/97-11/1997) was 2.59 nM and the Kd (HLA-A*02:01 [13]; [23]) was 30.6 nM. It also gave a Kd (HLA-A*02:17; [23]) of 661 nM.
Work on TVMDIISRK yielded a Kd (HLA-A*31:01) of at least 50000 nM, a Kd (HLA-B*83:01) of at least 5000 nM and a Kd (HLA-B*45:06) of at least 5000 nM. It also gave a Kd (HLA-B*15:42) of at least 5000 nM, a Kd (HLA-A*68:01) of 10.5 nM and a Kd (HLA-A*11:01) of 1.7 nM.
VSMDQLASY gave a Kd (HLA-B*46:01; source organism: Homo sapiens) of 31.4 nM and a Kd (HLA-A*01:01 [16]; source organism: Homo sapiens) of 164 nM.
VTYECPLLV gave a Kd (HLA-A*02:01 [13]; [21]) of 26.6 nM, a Kd (HLA-A*01:01 [18]) of 343 nM and a Kd (HLA-A*02:17; [21]) of 562 nM.
For YLALIATFKI, the Kd (HLA-A*02:17; source organism: Dengue virus 3 China/80-2/1980) was 885 nM.

Reference: the Immune Epitope Database (IEDB)
